The data set deals with GST-OsCBF3 (Oryza sativa (rice), UniProt Q64MA1 1-238). Briefly: EMSA; 20 fmol probe, 1 ug protein; unlabeled E2 (2 pmol) competes; 20 uL reactions, Light-Shift Chemiluminescent EMSA Kit per manufacturer; buffer, salt, pH and temperature not stated. Particulars: protein: recombinant; tags: N-terminal GST (pGEX-4T-1); label: biotin on probe; blunt. On the technique in general: A gel shift assay detects complexes by their altered migration in electrophoresis.
GST-OsCBF3, sequence (Q64MA1 whole entry): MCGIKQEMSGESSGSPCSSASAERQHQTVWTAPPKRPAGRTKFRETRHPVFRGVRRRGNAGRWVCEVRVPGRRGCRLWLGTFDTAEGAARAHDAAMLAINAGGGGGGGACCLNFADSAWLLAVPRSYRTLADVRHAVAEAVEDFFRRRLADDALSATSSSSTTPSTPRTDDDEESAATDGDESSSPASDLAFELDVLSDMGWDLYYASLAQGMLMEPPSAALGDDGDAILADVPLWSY

B1: E2 (dsDNA)
DNA 1: AGCGTAGCTGCGGCGGAGAGCTCGCCGCCGACCCGCCCGGAGATTGGTTGCTTGCGCTG
DNA 2: CAGCGCAAGCAACCAATCTCCGGGCGGGTCGGCGGCGAGCTCTCCGCCGCAGCTACGCT
Take B1: the binding result was “binds”.

Values taken from publication PMC4643140, “Low-Temperature-Induced Expression of Rice Ureidoglycolate Amidohydrolase is Mediated by a C-Repeat/Dehydration-Responsive Element that Specifically Interacts with Rice C-Repeat-Binding Factor 3”.
